Test [1] has as its target T1, CAPRIN-1 protein on the cell membrane surface of human cancer cell lines (human, UniProt Q14444 2-709).
T1 construct: whole, on cells; Endogenous CAPRIN-1 on human cancer cell lines (MDA-MB-231V, QG56, DLD-1, Capan-2 and others); The cells were not transfected; also called CAPRIN-1 on cancer cell surface
T1 sequence (looked up): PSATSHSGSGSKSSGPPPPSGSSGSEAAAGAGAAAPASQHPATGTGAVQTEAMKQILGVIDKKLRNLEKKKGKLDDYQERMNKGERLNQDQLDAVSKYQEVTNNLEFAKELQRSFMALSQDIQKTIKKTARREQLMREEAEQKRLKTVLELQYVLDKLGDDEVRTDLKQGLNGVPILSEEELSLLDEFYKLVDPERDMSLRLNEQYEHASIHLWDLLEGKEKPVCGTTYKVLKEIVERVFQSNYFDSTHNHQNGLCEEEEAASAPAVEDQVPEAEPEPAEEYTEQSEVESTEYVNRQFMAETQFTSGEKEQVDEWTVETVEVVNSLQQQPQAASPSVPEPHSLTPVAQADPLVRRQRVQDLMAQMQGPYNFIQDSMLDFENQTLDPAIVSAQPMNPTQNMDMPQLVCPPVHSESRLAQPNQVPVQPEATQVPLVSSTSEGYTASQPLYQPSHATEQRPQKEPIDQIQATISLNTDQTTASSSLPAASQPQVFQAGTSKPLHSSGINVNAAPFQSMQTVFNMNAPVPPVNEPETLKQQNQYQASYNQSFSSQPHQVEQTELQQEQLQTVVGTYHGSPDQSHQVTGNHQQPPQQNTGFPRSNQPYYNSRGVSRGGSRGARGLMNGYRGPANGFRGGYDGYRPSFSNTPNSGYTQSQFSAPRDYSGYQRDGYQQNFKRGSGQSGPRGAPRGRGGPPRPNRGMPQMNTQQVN
Kind of test: flow cytometry on human cancer cell lines as in Example 9(3).

Test [2] deals with T2, human CAPRIN-1 protein having the amino acid sequence of SEQ ID NO: 2 (human, UniProt Q14444 1-709, limits assumed).
T2 construct: also called CAPRIN-1 proteins
T2 sequence: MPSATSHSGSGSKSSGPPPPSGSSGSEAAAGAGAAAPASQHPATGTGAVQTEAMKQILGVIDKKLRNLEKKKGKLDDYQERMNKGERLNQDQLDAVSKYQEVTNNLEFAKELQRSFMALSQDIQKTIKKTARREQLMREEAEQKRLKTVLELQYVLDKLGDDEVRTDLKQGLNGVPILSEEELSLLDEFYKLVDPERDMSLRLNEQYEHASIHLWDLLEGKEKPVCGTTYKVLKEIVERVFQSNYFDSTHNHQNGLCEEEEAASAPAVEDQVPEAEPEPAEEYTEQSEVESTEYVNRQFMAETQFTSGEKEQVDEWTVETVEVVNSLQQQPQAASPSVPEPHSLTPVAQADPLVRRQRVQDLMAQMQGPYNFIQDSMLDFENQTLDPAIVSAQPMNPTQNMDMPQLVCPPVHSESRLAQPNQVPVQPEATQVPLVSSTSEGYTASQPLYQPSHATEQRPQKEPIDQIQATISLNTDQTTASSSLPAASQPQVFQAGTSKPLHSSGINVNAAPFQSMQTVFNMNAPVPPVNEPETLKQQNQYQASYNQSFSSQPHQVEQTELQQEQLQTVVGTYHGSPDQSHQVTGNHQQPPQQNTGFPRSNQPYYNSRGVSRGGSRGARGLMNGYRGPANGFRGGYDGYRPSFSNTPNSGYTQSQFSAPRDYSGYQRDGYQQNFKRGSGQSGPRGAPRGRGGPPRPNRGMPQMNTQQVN
Kind of test: ELISA as in Example 9(3). Background: An ELISA detects its analyte on a solid surface through an enzyme-linked reagent.

The target in test [3] is T3, partial CAPRIN-1 polypeptide consisting of the amino acid sequence of SEQ ID NO: 5 (human).
T3 construct: Synthetic peptide immobilized on ELISA plates
T3 peptide: ATQVPLVSSTSEGYTA
Kind of test: peptide ELISA as in Example 9(3).

The target in test [4] is T3, partial CAPRIN-1 polypeptide consisting …. Kind of test: ELISA on immobilized peptides, antibody at 0.1 µg/mL.
Experimental: Each peptide was dissolved at a concentration of 30 μg/ml in a 0.1 M sodium carbonate buffer solution (pH 9.6). […] The solution in each well was discarded, and 10 mM ethanolamine/0.1 M sodium carbonate buffer solution (PH 9.6) was added thereto at a concentration of 200 μL/well and left standing at room temperature for 1 hour. Then, the solution in each well was discarded, and each well was washed twice with PBS containing 0.5% Tween 20 (PBST) to prepare a peptide-immobilized plate. For verification, CAPRIN-1 proteins were immobilized on wells of this plate to prepare another plate according to the method described above. […] After shaking at room temperature for 1 hour, the solution in each well was discarded, and each well was washed three times with PBST. Next, a secondary antibody solution containing HRP-labeled anti-rabbit IgG antibodies diluted 3000- to 4000-fold with PBST was added thereto at a concentration of 50 μL/well. Then, the solution in each well was discarded, and each well was washed six times with PBST. A TMB substrate solution (manufactured by Thermo Fisher Scientific Inc.) was added thereto at a concentration of 100 μL/well and left standing for 15 to 30 minutes to cause color reaction. […] The absorbance was measured at 450 nm and 595 nm using an absorption spectrometer.
For test [5] the target is unchanged. Kind of test: ELISA as in Example 9(1), purified antibody.

Numbering of substitutions follows the chain as printed.

B1: humanized anti-CAPRIN-1 antibody #2 (antibody, V domains shown)
VH: EVQLVESGGGLVQPGGSLRLSCAASGFSFSGSYYMSWVRQAPGKGLEWIAYIYIGDGVTAYANWAKGRFTISKDNSKNTLYLQMNSLRAEDTAVYFCARGNKLWGPGTLVTVSS
VL: DIQMTQSPSSLSASVGDRVTIKCQASQSISSYLAWYQQKPGKAPKRLIYDASNLDSGVPSRFSGSGSGTDFTFTISSLQPEDIATYYCQCTAVSSATIYGNAFGGGTKVEIK
notes: Human IgG1 heavy chain constant region and 'human IgG1 light chain constant region'; also called humanized rabbit anti-CAPRIN-1 monoclonal antibody #2; humanized anti-CAPRIN-1 monoclonal antibody #2
On to B1, for which the binding result in test [1], in test [2] and in test [3] was “binds” throughout.

B2: humanized anti-CAPRIN-1 antibody #1 (antibody, V domains shown)
VH: B1 VH with E1Q, Q13K, K73R, S76A, T79S, K102R, P106Q
VL: B1 VL with S14A, A43P
notes: Human IgG1 heavy chain constant region and 'human IgG1 light chain constant region'; also called humanized rabbit anti-CAPRIN-1 monoclonal antibody #1; humanized anti-CAPRIN-1 monoclonal antibody #1
Regarding B2, the binding result in test [1], in test [2] and in test [3] was “binds” each time.

B3: humanized anti-CAPRIN-1 antibody #3 (antibody, V domains shown)
VH: B1 VH with K73R, F96Y
VL: B1 VL
notes: Human IgG1 heavy chain constant region and 'human IgG1 light chain constant region'; also called humanized rabbit anti-CAPRIN-1 monoclonal antibody #3; humanized anti-CAPRIN-1 monoclonal antibody #3
For the molecule B3, the binding result in test [1], in test [2] and in test [3] was “binds” in each case.

B4: rabbit anti-CAPRIN-1 monoclonal antibody #1 (antibody, V domains shown)
VH: QSLEESGGDLVKPGASLTLTCTASGFSFSGSYYMSWVRQAPGKGLEWIAYIYIGDGVTAYANWAKGRFTISKASSTTVTLQMTSLTAADTATYFCARGNKLWGPGTLVTVSS
VL: DVVMTQTPASVEAAVGGTVTIKCQASQSISSYLAWYQQKPGQPPKRLIYDASNLDSGVPSRFKGSGSGTDFTITISDLECADAATYYCQCTAVSSATIYGNAFGGGTEVVVK
notes: Rabbit hybridoma monoclonal antibody; also called rabbit anti-CAPRIN-1 antibody #1
As for B4, the binding result in test [4] is listed as “binds”.

B5: human-rabbit chimeric anti-CAPRIN-1 antibody #1 (antibody, human IgG1, V domains shown)
VH: B4 VH
VL: B4 VL
notes: also called human-rabbit chimeric anti-CAPRIN-1 monoclonal antibody #1
For B5, the binding result in test [5] was “binds”.

For the origin of these results see patent publication US20150050283A1 (TORAY INDUSTRIES, published 2015).
